Source: paper PMC2562391

Key:
Test in all cases: FRET or BRET; two-photon FLIM-FRET in living HeLa cells co-transfected with 0.5 μg of each plasmid, 24 h post transfection; eGFP fusion as donor, mCherry or mCherry fusion as acceptor; E from the donor lifetime with and without acceptor; read at the nuclear envelope, in the cytoplasm, in the nucleus and over the whole cell
[1] = biological target: Q3R Vpr-mCherry (HIV-1 (strain LAI))
[2] = biological target: I60A Vpr-mCherry (HIV-1 (strain LAI))
[3] = biological target: Vpr-mCherry (HIV-1 (strain LAI))
[4] = biological target: mCherry-Vpr (HIV-1 (strain LAI))
[5] = biological target: R77Q Vpr-mCherry (HIV-1 (strain LAI))
[6] = biological target: R90K Vpr-mCherry (HIV-1 (strain LAI))
[7] = biological target: W54G Vpr-mCherry (HIV-1 (strain LAI))

Q3R Vpr-eGFP (natural protein)
FRET efficiency E (whole cell) [1]: 19%

I60A-Vpr-eGFP (natural protein)
FRET efficiency E (nucleus) [2]: 7% | FRET efficiency E (whole cell) [2]: 6%

eGFP-Vpr (natural protein)
FRET efficiency E (cytoplasm) [3]: 9% | FRET efficiency E (nuclear envelope) [3]: 13% | FRET efficiency E (nucleus) [3]: 6% | FRET efficiency E (whole cell) [3]: 9% | FRET efficiency E (cytoplasm) [4]: 7% | FRET efficiency E (nuclear envelope) [4]: 13% | FRET efficiency E (nucleus) [4]: 6% | FRET efficiency E (whole cell) [4]: 8%

R77Q Vpr-eGFP (natural protein)
FRET efficiency E (whole cell) [5]: 22%

R90K Vpr-eGFP (natural protein)
FRET efficiency E (whole cell) [6]: 18%

Vpr-eGFP (natural protein)
FRET efficiency E (cytoplasm) [3]: 23% | FRET efficiency E (nuclear envelope) [3]: 27% | FRET efficiency E (nucleus) [3]: 19% | FRET efficiency E (whole cell) [3]: 23% | FRET efficiency E (cytoplasm) [4]: 14% | FRET efficiency E (nuclear envelope) [4]: 17% | FRET efficiency E (nucleus) [4]: 13% | FRET efficiency E (whole cell) [4]: 15%

W54G Vpr-eGFP (natural protein)
FRET efficiency E (whole cell) [7]: 16%
